Experimental data reported in PMC3173369, “Mitochondrial Inhibitory Factor 1 (IF1) Is Present in Human Serum and Is Positively Correlated with HDL-Cholesterol” (PLoS ONE, 2011).

Target: the molecule itself
Experiment: SDS-PAGE and Western blot after immunoprecipitation; 2 µg purified rIF1 immunoprecipitated with anti-IF1 antibodies cross-linked on protein A/G resin, eluted in 0.2 M glycine pH 2.8, boiled in Laemmli buffer with SDS and DTT, 15% SDS-PAGE, blot with anti-IF1; bands at the size of monomer and dimer

B1: Recombinant human IF1 (mitochondrial Inhibitory Factor 1) (natural protein, UniProt Q9UII2-1 26-106, looked up)
chain: GSDQSENVDRGAGSIREAGGAFGKREQAEEERYFRAQSREQLAALKKHHEEEIVHHKKEIERLQKEIERHKQKIKMLKHDD
notes: mature peptide without the mitochondrial targeting signal, amplified from HeLa cell cDNA; Cloned at BamHI/HindIII into pBEn-SBP-SET1-Qa (Stratagene); also called rIF1; recombinant IF1
  stoichiometry N: 2
